Data from the DeepSol protein solubility set.

assay: soluble on expression in E. coli; label from the status in PepcDB or PDB records

Sequence | soluble on expression in E. coli
MLRLEEDEPSPGICDQLHEIVRSIGLLCYVACPPIPSEIIRKLAFHPPDKGATYRIELKSDPEKDLESVRDCHDEPVQLVVRDRVHPEVKVFSVTTSEDSHLVCVKCSPNCYSKNPEVANQVVLFCQSSSADLGSFLQPNSMNFSTFANLFETDVYAFDYSGYGFSSGTQSEKNMYADVRAVYEHILKTRPDKKIVVIGYSIGTTAAVDLAASNPDRLVGVVLIAPLTSALRMFCNNPDKETTCIDKICHINTRVLICHGDHDQRIPMTHGMALYENLKNPVPPLIVHGANHHSIISGEYIEVFTRIASFMRNETLLSCRANQIESSSSKKFKHE | not soluble
MSVTKLNNGKWQARVSYKDDDGNYKSVTHLEKRKTDAVEWETKTKNALLEGADLSRSTESLKHYFLDWIRIYKTDGVSRHTHELYMGNWRHIAAYFKDRPMSAIKRPDYQKFLNEFGRSHGIATSHKLHQQVHTAIKDAVADGILKRDFAYKAHVTGRPPKPVEEKYLTLSDYKKLRKYLIKTADYDHMTMLMMLFQLETGTRFEEAAGLTWDNLDLNNGIVHIKQQWDARRQTFRPTKGNGQADGDITIGPAYCRFMRSYRSTQKDYLELHEMKNPKNLVFWSKLGKIVGNGNANEELGRICNRLKINKVTTHAMRHTHASILILNHESLPYVQHRLRHQKLETTVNTYVHLIEEENGVSDKKATELMDEGF | not soluble
TSKKKRQRGSRTHGGGSHKNRRGAGHRGGRGDAGRDKHEFHNHEPLGKSGFKRPQKVQEEAATIDVREIDENVTLLAADDVAEVEDGGFRVDVRDVVEEADDADYVKVLGAGQVRHELTLIADDFSEGAREKVEGAGGSVELTDLGEERQAEAEETEDADADEE | soluble
MIRAVHSAAIVLLVFSYMAEFSGAASGGYAPASVGTQPVGTSFRDRLADGSPGPVMVVIPPGRFRMGAIFGGGDPDEKPVHEVSIPRAFAIGAYEVTFAEYDRFCEATGREKPKDGRRWFGPLSRNWGRGNKPAMNVSWDDAVAYVKWLSDQTGHRYRLPSEAEWEYAARGGKDTPYWWGGTVGQNKANCKGCGSRWDKKITAPVGSFAPNPYGMFDTAGNVWEWCVDTWHESYDGAPADGSPWIGGEDSRRVQRGGSFGSKPRYIRSSARGRGAQDGRYVYLGFRVVRELLEHHHHHH | not soluble
MGRPRVARLDRERIAEAALELVDRDGDFRMPDLARHLNVQVSSIYHHAKGRAAVVELVRHRVVREIDGSAFERLPWDEAFSEWARSYRAAFSRHPTAIRLLATETVRDPGSLSVYHSAAAGLRGAGFPDDHIMAVITAAENFLLGAALDAAAPEVMIEADSTTTDDALTRALAAAPRGPERAEQAFELGLAALLAGFHHLLQECGAVQR | soluble
MGSDKIHHHHHHMIKFLYFTDTHIRGTAPKNRLDPFVETLKHKLHEVMEIAETEKVDMLLHGGDVFDRPDLSPNVVGQFAQIFRKTSRPIYAIAGNHDTFGHNPETISRTMLGLLHSFGIIHIIDPQTPVLVEKDGVKVQISGQPYHYDIDQRDPKLDYYPVNVHEADVMVHLVHSMLVEKALPEGIPHTLIDHIWGTSADVLLTGHFHGGFGIKQKDGRYICNPGAIARINNHWTELVRTPTVILGTITKDGIDLKERPLQSAKNGEEVLDRSFLEKSINQEEKLHAFIQQVKEHAEFQSLNMNDVINEIAAMSNVEEPVKQEALRRITVIEEAWKGGEHEYD | not soluble
GSHMSLFDFFKNKGSAATATDRLKLILAKERTLNLPYMEEMRKEIIAVIQKYTKSSDIHFKTLDSNQSVETIEVEIILPR | soluble
MAKSRLLLSELLDQLSFALCIVRNDYVIVKVNEYFESRVIFDGETMQGKNILELFPESADYLKRKIDTALVIESSSFSSWEQKPHLLPFKSSRPVSGEEEQMYQNLEVIPIHSEDGTIEHVCLCVYDVTIQASQQQELKRVSQKLEEEHQSQKVLIKKLEDAQGQLIQSEKMASIGQLSAGIAHEINNPVGFITSNLQTLSDYFNSLEKVLKSITQTIGQSKDTALNEACQKILKQGQVDFILEDTAELITESLEGSSRVMSIVKNLKEFSHVDRSEWSYANLENCIESTLKIINNEIKYNITLEKHYAANVPDVFCQPMQINQVLLNILVNASHAIKGEGTITITLQSAGDDFVEIHIRDTGCGIPEEIRERIFEPFFTTKPVGSGTGLGLSVSYGIINKHNGTISVTSEVGKGSEFTIRLPVNPSAEAVDNTDAKAM | not soluble
MGSDKIHHHHHHMDWTNIPPLYALKAFESAAKHQSFTLAASELFISQSAISKHINTIEIFFGRKLFYRKGPKVFLTKEGESFAGDLRHAFEILSKACENIHRAGIVLTISSPYTFSIRQFIPVLRKYKNQDGFPIVTVETINDDYSHSIVNLKNHDATVKYGDGKFSDEWNCTLLSPECLIVVVSPKLLHLFEKDNRILIDLVYVKSRELDWFSWCEESRLKERFQVINKYEFESMDSAINAVIKGLGVAVVDIGMVCDELMDGVLLTPFKFSFYSGRGYYFLRGGDDDNYLSSLLECVRLDLSGRGLAELCFNDKCDMGNCRLAATKKITK | not soluble
MSSERACMLCGIVQTTNEFNRDGCPNCQGIFEEAGVSTMECTSPSFEGLVGMCKPTKSWVAKWLSVDHSIAGMYAIKVDGRLPAEVVELLPHYKPRDGSGSATIWGVRCRPGKEKELIRKLLKKKFNLDRAMGKKKLKILSIFQRDNYTGRIYIEAPKQSVIEKFCNGVPDIYISQKLLIPVQELPLLLKPNLEHHHHHH | soluble
MGSDKIHHHHHHMRIVAVTDIHGNMASTVALANILKKIEAELLLIAGDITHFSGGEIAKQILEPLLKLGVRVLAVMGNCDGKDVPKVLDELGINVHNARVEVKKVGVVGFGGSSVTPFSTIWEFSEEEIYSSLKRNYRSGDIVLTHAPPYRTRIDKTFSGIHAGSKGLRKFIEEEQPPICICGHIHEARGIDKIGETLVVNPGPLSRRYYAVIDSETWEVKLERL | not soluble
MSLSHYDRMKRSSIAPYRRSNDSSNRIDKKTGKKGHGLMSKLKDLVSFGWAQEHHKDNDFSARDTGRERTNVSKGSYAAVPGGFFSSDQSSFILRERSRIMNESTMHSEADTSNAKLADFFAKKGNEPLSEIEMEGVLALMQKSRGVADESSFLGNSSRLLGDISNANASQVLRTGNISTSSALNVPNFKPSTDESRNINAKEVENSTIVSTPLKRKNFDYSSIRSPYRTVIYRFDDSNKKKISSVFDKPESSSQEVDETPKPSNSKPLSNTASALVSLLSDKDAAKESIKPMANPYTSHLTALRKSREDLPSINDKITVPKRRQRSETEDKEEAKITSSNGEAQEDTNIPEGIASRKNEEAQDSFTKYKPMRSSSLRDSVSLAHTESNNEKQMNSPKFVPAPLDKNETKETAKSDLTLTSSDKQSESKPSFSFPVNSTTKSTFMGTKKESTSPAVNSEGHHHHHH | soluble
MSLVKAISSNLGYPRLGEKREWKRALEKFWNGAISEEELLAETKALRLHALKKQQEKGIDLIPVGDFSFYDQVLDTSVTFGIIPKRFQHDGGKVSLNTYFDIARGKSDAVASEMTKWFNTNYHYIVPELADADPKVLDNRALYYYEEAKKELGIEGKPVLVGPVTYLKLGKGNDAENFEALLDKFIPAYVEILKELERAGAKWVQIDEPYLATSFDKSEIKLFEKVYQAFQTAVPNLKIELQTYFESLDYYEEVVNLPVAAIGIDFVHDHGDSLEALKAHGFPEDKYLAAGVIDGRNVWRSDLDAKLSLLTEIADYVTDGKLIVQPSNSLLHVPVTKLSEPDLDEVILGGLSFADQKLDEIAILTKALTDGAESVTAELEDARAAVTALNESSHRNNLEVQEAIANLGNVRVDRELPFAERIKLQHAWLNLPLFPTTTIGSFPQSPEVRKTRADWLKGNITDAEYNAFIEKETARWIKIQEELDIDVLVHGEFERTDMVEYFGQKLAGFQATKFGWVQSYGSRAVRPPLIYGDVAFTEEITVKESVYAQSLTKRPVKGMLTAPVTIINWSFVRDDVPESVVANQVGLALRKEVEALERNGIKVIQVDEPALREGLPLKQARWEKYLNDAVYSFKLTTASVQNDTQIHTHMCYSDFDDIIDTISALDADVISIETSRSHGEIISTFEEVTYDKEIGLGVYDIHSPRVPTVTEIQDNIRRALRAIDAKQFWINPDCGLKTRKEPETIAALQDMIKATKEVRAEYQVLEKEGHHHHHH | soluble
MELKKLMGHISIIPDYRQAWKMEHKLSDILLLTICAVISGAEGWEDIEDFGETHPDFLKQYGDFENGIPVHDTIARVVSCISPAKFHECFINWMRDCHSSDDKDVIAIDGKTLRHSYDKSRRRGAIHVISAFSTMHSLVIGQIKTDEKSNEITAIPELLNMLDIKGKIITTDAMGCQKDIAEKIQKQGGDYLFAVKGNQGRLNKAFEEKFPLKELNNPAHDSYAMSEKSHGREEIRLHIVCDVPDELIDFTFEWKGLKKLCVAVSFRSIIAEQKKELEMTVRYYISSADLTAEKFATAIRNHWHVENKLHWRLDVVMNEDDCKIRRGNAAELFSGIRHIAINILTNDKVFKAGLRRKMRKAAMDRNYLASVLTGSGLS | soluble
MSLKTPAREIITDYAQAHFRYFRTADGTVYAQRNGHPVARPIRSQGTTGSHRQELMVGLFKDGIGVFNGTAMKEALDLIEALALTEDVQPVHIRVAPGFDGATWLDLGRDDGRSVRIHPTGWDIAIPDPREVCWRRTQLTGELPVPIKDTDGKGIDLLLRLCNFATAETECLAIAWLIGCLGPSVPVPAPFLTGPQGAGKSTGGRMLVRIIEGMTGDLRRAPKDEENLIAAVAAGWVTALDNLSHMTPDLSDAMCCIVTGAENVKRALFTDGDVFRARYRRPLLLTGIDVGVIRPDLAERLLPLRLERPKVRRTEAELWTEYAEVLPVVLGSLLDLAVKVRAVEVETPTDLRMADFAHLCAQLDAATGFGALAAYRAALDDLNDDVIEGDLLAQTVLRHAADLEPGTTQRMTSTEWLHCLSQLYTGEEFRPLPKGWPTTGKVLSDRLKRLQPTLAARGVLIDSGRTYEGRYLEMTRAPATEGHHHHHH | not soluble
MIKSLKQLAIQAGLEYLGEDVSIQTVAINSNEVRQDCLFVAIVANRDGHEFIPSAIANGAKAILVSKKQGLDIPQVVCGNTIKGLRALAKEYRKSLTMPIISLTGSCGKTSVKEMIVTLLGERKVHFTQGNLNNYLGVPMTILETPHDVDFAVIEAGTNVGGEIKAAADIIQPNIAMITNVGACHLENLKTLDGVMIEKGELLKALPRDGFCIVNLDDERIPNYAKLLECKKISCSMTNPKADILVLDYRATSNSYAFKIRIFSQEYDYQLPNIGKHNLFNSVLAIASVVAVGLEPKDFLQNTQNIKNYKGRFSTEKLSDKLTLIDDTYNASAGAVQAAIEDLAEFDGKKILAISSMRELGDEAENYHRKMGQWLKKANLDKIFLFGEKNLIDYVLAEYSNQNAKYYESKDELNNDLAKILDEYKSQSTKLTVKGARSFKMEEVVKFVKENL | not soluble
MEAVAEHDFQAGSPDELSFKRGNTLKVLNKDEDPHWYKAELDGNEGFIPSNYIRMTECNWYLGKITRNDAEVLLKKPTVRDGHFLVRQCESSPGEFSISVRFQDSVQHFKVLRDQNGKYYLWAVKFNSLNELVAYHRTASVSRTHTILLSDMNVETKFVQALFDFNPQESGELAFKRGDVITLINKDDPNWWEGQLNNRRGIFPSNYVCPYNSNKSNSNVAPGFNFGN | not soluble
MSRSEFPNSKCLICGSICTAKFHFGGLSCNACASFFRRTVSLNIRYLCKNSNNCITSPGQRTFCKACRYESCVDKAGMKRDFVQQRRSTNATPKYILNSTSGSSNREVVRGFITDSNSHLVTQTDHLRNIDNNEHCKDMKKYSDLLEISHMNLLRFYVKQVEPEKKELKNILQIKSINDLMITCAYDNGSAMESCVHCPGTGKLSQEDVRLLQKSFQFAHTWLDSTWQYSIATDIDESEVSGESENLSQFISHIKSTLGACLANLKLDVYEFAAFKSFCVWSIGAQGATESMKVVAQEHYEAVASALKMYYKTFTSMSDSEIATRIEEISFGRSSDVQMIYDETIKLYNKIGIPKSLFFEGN | not soluble
GSHMLEDPQRRIRRPFSVAEVEALVQAVEKLGTGRWRDVKLCAFEDADHRTYVDLKDKWKTLVHTAKISPQQRRGEPVPQELLNRVLNAHGYWTQQQMQQLQQNV | soluble
